For assay [1], the target named is Entamoeba histolytica Phosphoserine aminotransferase (Entamoeba histolytica). The assay is described as follows: cross-linking; glutaraldehyde cross-linking of EhPSAT incubated at pH 9, 8, 7 and 6, analysed on 10% SDS-PAGE.
For assay [2] the target is unchanged. Description: SEC; Superdex 200 10/300 GL column, EhPSAT at pH 6, 7, 8 and 9; calibrated with ferritin, aldolase, conalbumin and ovalbumin; also run with 200 mM NaCl or NaF.

For orientation: stoichiometry N means a count of units in the complex or per binding partner.

Turning to “Entamoeba histolytica Phosphoserine aminotransferase (enzyme)”, the stoichiometry N in assay [1] and in assay [2] was 2 each time.
